{
  "source": "paper PMC4529466",
  "about": "“Intradermal insulin infusion achieves faster insulin action than subcutaneous infusion for 3-day wear” (Drug Delivery and Translational Research, 2015)",
  "key": {"[1]": {"experiment": "Safety: adverse events, hypoglycemia, Draize erythema and edema scoring of infusion site", "assay_type": "in vivo, human (T1DM patients)", "description": "Safety evaluations comprised of recording/classification of adverse events (including hypoglycemia, BG < 60 mg/dL with or without symptoms), physical examinations, clinical laboratory parameters, vital signs, subjective pain assessments, and assessments of local tissue response at the injection site. Visual observations of the area around the infusion site for skin irritation, insulin leakage, and any notable abnormalities were recorded after each bolus delivery. Upon device removal, the study physician checked the site of insulin administration, as well as 1 and 2 h later, and scored any local reactions according to the Draize erythema and edema scale.\nPharmacokinetic parameters were derived from baseline corrected blood insulin data. The pharmacokinetic and pharmacodynamic populations included all patients with data from either route across 3 days of infusion and patients exposed to at least one trial product with available data respective of PK/PD endpoints. PK and PD endpoints were analyzed using a linear mixed effects model (ANOVA) with sequence, application route, meal, and day as factors along with interactions. The safety population included all patients who had participated in any trial-related activity after randomization. VAS pain data comparisons were made between application routes at each assessment time point using a similar model. Safety evaluations were summarized by descriptive statistics."}, "[2]": {"experiment": "VAS self-rated pain perception of bolus delivery and daily infusion", "assay_type": "in vivo, human (T1DM patients)", "conditions": "ID compared to SC infusion", "description": "Patients rated bolus-associated pain immediately after insulin delivery for both meals and again each evening at approximately 6 PM after completion of the morning dosing and sampling cycles to rate overall discomfort from the infusion process during the preceding 24 h. The visual analog scale (VAS) utilized a standard validated 10-cm scale anchored by “no pain” (score 0) and “severe pain” (score 10) without inclusion of additional numerical or verbal descriptors to avoid clustering of scores around intermediate points. Scores were measured as absolute distant from origin. Within 1 h prior to device removal, patients completed a non-validated user acceptability questionnaire consisting of a set of standard multiple choice closed-ended questions covering acceptability of sensations for infusion sets application and operation, set satisfaction, willingness to use the respective infusion set again, and set preference. Responses were restricted to a 5-point scale generally ranging from extreme agreement/satisfaction to extreme disagreement/satisfaction depending upon the question. […]\nPharmacokinetic parameters were derived from baseline corrected blood insulin data. […] PK and PD endpoints were analyzed using a linear mixed effects model (ANOVA) with sequence, application route, meal, and day as factors along with interactions. […]"}},
  "data": [
    {"substance": "insulin aspart", "values": [
      {"measurement": "hypoglycemic episodes (BG below 60 mg/dL)", "setting": "[1]; ID infusion", "result": 67, "unit": "episodes"},
      {"measurement": "subjects with hypoglycemic episodes", "setting": "[1]; ID infusion", "result": 22, "unit": "subjects"},
      {"measurement": "instances with Draize erythema score 2", "setting": "[1]; ID route, within 2 h after set removal on day 3", "result": "4/24"},
      {"measurement": "hypoglycemic episodes (BG below 60 mg/dL)", "setting": "[1]; SC infusion", "result": 56, "unit": "episodes"},
      {"measurement": "subjects with hypoglycemic episodes", "setting": "[1]; SC infusion", "result": 18, "unit": "subjects"},
      {"measurement": "detected hypoglycemic episodes, total", "setting": "[1]; across the study, both routes, majority asymptomatic", "result": 123, "unit": "episodes"},
      {"measurement": "Draize erythema and edema upon removal of infusion set", "setting": "[1]; both routes, immediately after removal on day 3", "result": "essentially no detectable erythema or edema"},
      {"measurement": "adverse events (AEs), total", "setting": "[1]; entire study, both routes, mild to moderate severity, none serious", "result": 31},
      {"measurement": "VAS self-rated pain", "setting": "[2]", "result": "statistically greater for ID compared to SC infusion"}
    ]}
  ]
}
